Source: the supplement of paper PMC10567573

B1: MNAT1 (parent)
chain: LEEALYEYQPLQIETYGPHVPELE

Variants of: B1
Experiment: protein stability index of a GFP-peptide fusion (GPS, HEK-293T) (PSI 1-6); higher = more stable
Conditions: c terminus: a fixed tail appended
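Also: lentivirally expressed fusions sorted by FACS into six bins by GFP to DsRed ratio, PSI derived from sequencing read proportions per bin multiplied by bin number.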

Protein stability index of substitutions, site by site:
P18: L 2.16 | E 2.15 | T 3.02 | M 2.01 | Y 2.97 | Q 3.3 | V 2.39 | G 2.96 | S 2.6 | W 1.18 | N 3.31 | I 2.04 | H 2.81 | F 2.17 | A 2.74 | C 1.91 | K 4.11 | R 3.78 | D 2.8
Y6: L 3.43 | W 2.39 | A 2.3 | T 3.56 | I 2.58 | R 2.27 | K 2.46 | D 4.36 | M 3 | V 3.33 | C 2.61 | P 5.47 | Q 2.81 | H 3.11 | G 3.43 | N 3.7 | E 2.74 | F 2.8 | S 2.41
G17: I 2.13 | T 2.5 | E 3.14 | D 2.21 | W 1.74 | C 1.98 | K 2.88 | P 2.69 | L 1.85 | H 3.14 | Y 1.59 | F 2.35 | S 2.27 | M 1.75 | A 2.35 | V 2.12 | Q 2.53 | N 2.99
Q12: N 2.65 | F 2.12 | S 2.21 | D 3.92 | I 2.5 | R 2.27 | G 2.75 | K 1.84 | W 2.11 | E 3.67 | M 2.35 | T 3.19 | Y 2.01 | C 2.14 | P 5.02 | L 2.67 | H 2.5 | A 2.33 | V 2.46
H19: R 3.99 | L 2.33 | W 1.5 | D 2.76 | P 2.01 | A 2.89 | I 1.57 | S 2.69 | Q 2.37 | G 2.26 | M 2.09 | K 2.8 | V 2.21 | N 2.82 | F 2.11 | C 3.3 | Y 2.62 | E 3.27 | T 3.17
L11: S 4.11 | N 4.71 | W 4.27 | T 3.99 | R 4.32 | C 2.99 | F 4.11 | V 2.04 | G 5.26 | Y 3.18 | A 4.06 | H 4.61 | P 5.15 | K 4.26 | I 2.56 | E 4.77 | Q 4.28 | M 3.17 | D 4.85
Y8: K 5.14 | L 4.75 | V 4.98 | A 5.3 | Q 5.5 | N 5.74 | D 5.23 | G 5.41 | E 5.4 | H 4.27 | R 5.44 | P 5.25 | M 4.71 | T 5.38 | W 3.59 | I 4.92 | F 3.75 | S 5.53 | C 4.91
P10: S 4.05 | I 2.77 | A 3.89 | V 2.25 | D 4.33 | T 4.1 | E 4.6 | L 3.32 | N 4.75 | W 2.63 | C 3.27 | Y 3.09 | F 2.91 | Q 4.43 | G 4.24 | K 4.53 | R 4.01 | M 3.85 | H 4.99
E22: S 2.4 | A 2.47 | F 1.97 | I 1.84 | G 2.43 | Y 2.49 | L 2.35 | V 2.56 | H 2.2 | P 2.28 | T 2.56 | M 2.35 | K 2.31 | W 1.54 | R 2.35 | C 3.71 | D 2.46 | N 2.31 | Q 2.54
V20: P 2.21 | C 2.15 | K 3.23 | D 2.36 | I 2.4 | N 3.23 | T 2.38 | M 2.57 | Y 2.78 | F 2.36 | W 2.17 | E 1.94 | R 2.58 | H 2.1 | G 3.45 | S 2.57 | Q 2.92 | A 3.26 | L 2.49
P21: S 2.41 | V 2.19 | N 2.47 | D 3.3 | L 2.79 | T 2.56 | H 2.58 | G 1.97 | F 1.44 | I 2.2 | K 3.01 | R 2.96 | C 3.78 | A 2.92 | Y 1.75 | E 3.67 | Q 3.42 | W 1.75 | M 2.53
Q9: F 2.13 | S 2.94 | G 3.46 | A 2.86 | I 3.56 | D 4.67 | W 2.79 | C 2.6 | P 5.02 | E 4.38 | H 1.87 | R 1.88 | Y 2.43 | K 2.68 | T 4.38 | N 2.59 | V 3.84 | L 2.7 | M 2.74
L5: V 4.64 | Y 4.46 | T 4.9 | W 3.89
I13: C 4.14 | F 4.34 | E 5.29 | M 4.27 | T 4.75 | L 4.51 | S 4.96 | G 5.01 | Y 4.41 | W 3.8 | A 5.37 | P 5.08 | D 5.07 | N 5.5 | H 5.15 | Q 5.01 | K 4.9 | R 4.76
L23: D 4.02 | C 3.16 | A 3.56 | I 2.53 | G 3.55 | E 4.12 | F 2.87 | H 3.29 | K 3.59
Y16: R 3.19 | M 3.79 | T 4.09 | K 4.34 | E 4.13 | S 4.27 | N 4.7 | Q 4.33 | H 3.15 | V 3.19 | I 3.61 | L 4.15 | P 4.94 | F 3.49 | W 2.49 | D 5.37 | C 3.84 | G 4.52 | A 4.54
E7: A 2.19 | G 3.53 | P 2.71 | C 1.92 | R 1.73 | N 2.73 | Y 1.98 | T 2.68 | I 2.44 | D 3.92 | Q 2.28 | W 2.1 | H 2.11 | F 1.87 | S 2.76 | M 2.19 | V 1.73 | K 1.87 | L 2.25
E14: G 3.31 | Y 1.87 | P 4.22 | C 2.12 | W 1.6 | F 2.01 | N 2.61 | H 1.8 | A 2.3 | D 2.68 | M 2.47 | I 1.81 | T 2.32 | Q 2.19 | V 1.82 | R 1.93 | K 1.75 | S 2.25 | L 2.01
T15: H 3.91 | P 4.55 | Q 4.09 | K 4.14 | L 1.82 | D 4.73 | I 1.61 | F 1.75 | N 4.13 | E 4.43 | A 1.99 | M 2.32 | W 2.2 | G 4.13 | Y 2.01 | R 4.41 | C 2.18 | V 1.7 | S 3.54
